Publication PMC8631008 (FEBS letters, 2021)

Molecular target: T1, Pleiotrophin, wild type (mature, residues 1 to 136) (human, UniProt P21246 33-168)
T1 sequence (looked up): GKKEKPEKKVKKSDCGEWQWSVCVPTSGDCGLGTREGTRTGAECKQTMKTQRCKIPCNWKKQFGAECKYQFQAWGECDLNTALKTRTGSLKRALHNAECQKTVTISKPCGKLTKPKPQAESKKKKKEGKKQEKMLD
Experiment: NMR titration

Kd: ~30 µM
B1: PTPRZ peptide (residues G1414 to K1441 of receptor type protein tyrosine phosphatase ζ) (peptide)
chain: GGGEDGDTDDDGDDDDDDRGSDGLSIHK
